Numbering of substitutions follows the chain as printed.
T1: soluble human ASGR-1 carbohydrate binding domain (CBD; amino acid residues 154-281; N-terminal 6xHis tag) (human, UniProt P07306 154-281)
T1 construct: also called ASGR-1 CBD
T1 sequence: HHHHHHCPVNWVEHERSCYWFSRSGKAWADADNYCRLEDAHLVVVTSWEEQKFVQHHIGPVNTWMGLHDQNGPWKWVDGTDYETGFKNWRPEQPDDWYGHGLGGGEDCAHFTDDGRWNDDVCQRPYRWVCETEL

T2: human ASGR-1 (wild type) (human, UniProt P07306 1-291)
T2 construct: also called wt ASGR1; huASGR-1
T2 sequence: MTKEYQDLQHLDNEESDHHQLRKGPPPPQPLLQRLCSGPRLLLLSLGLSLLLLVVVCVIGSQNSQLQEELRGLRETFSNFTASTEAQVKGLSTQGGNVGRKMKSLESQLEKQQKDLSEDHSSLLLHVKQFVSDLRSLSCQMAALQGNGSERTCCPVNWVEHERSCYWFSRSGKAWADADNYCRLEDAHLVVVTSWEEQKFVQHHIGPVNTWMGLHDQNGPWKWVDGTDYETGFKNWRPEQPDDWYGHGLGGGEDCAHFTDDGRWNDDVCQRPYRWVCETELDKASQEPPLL

T3: Mouse ASGR-1 (mouse, UniProt P34927 1-284)
T3 construct: Expressed on HEK 293 cells or as membrane prep on beads; cDNA GenBank BC022106.1; also called muASGR-1; mASGR-1
T3 sequence: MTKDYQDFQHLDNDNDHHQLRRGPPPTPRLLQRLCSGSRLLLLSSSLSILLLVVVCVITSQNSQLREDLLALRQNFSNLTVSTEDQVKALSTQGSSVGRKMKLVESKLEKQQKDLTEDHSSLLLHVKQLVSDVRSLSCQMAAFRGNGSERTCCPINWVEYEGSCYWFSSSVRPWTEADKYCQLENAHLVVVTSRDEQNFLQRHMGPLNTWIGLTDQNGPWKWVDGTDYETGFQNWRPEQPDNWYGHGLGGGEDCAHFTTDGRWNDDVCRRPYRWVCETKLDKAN

B1: 75G3 (antibody, V domains shown)
VH: QVQLQQWGAGLLKPSETLSLTCAVYGGSLSGSYWSWIRQPPGKGLEWIGEINLSGSTNYNPSLKSRVTISVDTSKSQFSLTLRSVTAADTAVYYCARDYGGLDYWGQGTLVTVSS
VL: EIVLTQSPGTLSLSPGERATLSCRARQNVDSSYLAWYQQKPGQAPRLLIYGASSRATGIPDRFSGSGSGTDFTLTISRLEPEDFAVFYCQQYERSPWTFGQGTKVEIK
notes: mAb
B2: 218G4 (antibody, V domains shown)
VH: QVQLVESGGGVVQPGRSLRLSCAASGFTFSSYGLHWVRQAPGKGLEWVAVIWYDGSNKYYADSVKGRFTISRDNSKNTLYLQMNSLRVEDTAVYYCANWYYYYYGMDVWGQGTTVTVSS
VL: QSVLTQPPSVSAAPGQKVTISCSGSSSNIGNNYVSWYQQLPGTAPKLLLYDSNKRPSGIPARFSGSKSGTSATLGITGLQTGDEADYYCGTWDSSLNTVVFGGGTKLTVL
notes: mAb
B3: 176H4 (antibody, V domains shown)
VH: QVQLVESGGGVVQPGRSLRLSCAASGFTFSSYGMHWVRQAPGKGLEWVAIIWYDGSYKYYADSVKGRFTISRDNSKNTLYLQMSSLRAEDTAVYYCARDAHDFWSGYFAYWGQGALVTVSS
VL: DIVMTQTPLSLSVTPGQPASISCKSSQSLLHGDGKTYLYWYLQKPGQPPQLLIYEVSNRFSGVPDRFSGSGSGTDFTLKISRVEAEDVGIYYCMQSIQIPWTFGQGTRVEIK
notes: mAb
B4: 193E7 (antibody, V domains shown)
VH: QVQLQQWGAGLLKPSETLSLTCAVYGGSFSGYFWTWIRQPPGKGLEWIGEINHSGSTNYNPSLKSRVTISVDTSKNQFSLKLSSVTAADTAVYYCARDYGADYWGQGTLVAVSA
VL: DIQMTQSPSSLSASVGDRVTITCRASQGIRNDLGWYQQKPGKAPKRLIYSASSLQRGVPSRFSGSGSGTEFTLTISSLQPEDFATYYCLQHKRYPLTFGGGTKVEIK
notes: mAb
B5: 194C10 (antibody, V domains shown)
VH: QVQLQQWGAGLLKPSETLSLTCAVSGGSFRYYYWSWIRQPPGKGLEWFGEINHSGSTNYNPSLKSRVTISIDTSKNQFSLKLRSVTAADTAVYYCARDYGAFDIWGQGTMVTVSS
VL: EIVLTQSPGTLSLSPGERATLSCRASPSVNSGYLAWYQQKPGQTPRLLIFGASSRATGIPDRFSASGSGADFTLTISRLEPEDFAVYFCQQYESSPWTFGQGTKVEIK
notes: mAb
B6: 197G3 (antibody, V domains shown)
VH: QVQLVESGGGVVQPGRSLRLSCVASGFTFSSHGMHWVRQAPGKGLEWVAVIWYDGSNKNYADSVKGRFTISRDNSKNTLYLQMNSLRAEDTAVYYCARDPSVGYDGMDVWGQGTTVTVSS
VL: DIQMTQSPSSLSASVGDRVTITCRASQGIGNHLAWFQQKPGKAPKSLIYAASSLQSGVPSKFSGSRSGTDFSLTISSLQPEDFATYYCQQYSNYPVTFGPGTKVDIK
notes: mAb
B7: 75G3 (antibody, V domains shown)
VH: B1 VH
VL: B1 VL
notes: Tested as hybridoma supernatant at normalized concentration
B8: 218G4 (antibody, V domains shown)
VH: B2 VH
VL: B2 VL
notes: as for B7
B9: 190F8 (antibody, V domains shown)
VH: B6 VH with V23A, S31T, H32Y, P100Q, S101G, M107L
VL: DIQMTQSPSSLSASVGDRVTITCRTSQGIGNYLAWFQQKPGKAPKSLLYKASSLQSGVPSKFSGSGSGTDFTLTISSLQPEDFATYYCQQYMTYPLTFGGGTKVEIK
notes: as for B7
B10: 194C1 (antibody, V domains shown)
VH: B6 VH with V23A, H32Y, K58E, N59H, D99N, P100R, S101G, D105Y, M107L
VL: B9 VL with T25A, G30S, L48I, K50A, Q89L, Q90H, M92L
notes: as for B7
B11: 197G3 (antibody, V domains shown)
VH: B6 VH
VL: B6 VL
notes: as for B7
B12: 191G1 (antibody, V domains shown)
VH: B6 VH with V23A, H32Y, K58E, N59H, P100R, S101G, D105Y, M107L
VL: B9 VL with T25A, G30S, L48I, K50A, Q90H, M92L
notes: as for B7
B13: 198G3 (antibody, V domains shown)
VH: B6 VH with R19K, V23A, S31T, H32Y, S56T, Y80C, P100Q, S101G, M107L
VL: B9 VL with T5A, N31K, S56G
notes: as for B7
B14: 191G10 (antibody, V domains shown)
VH: B6 VH with V23A, H32Y, P100Q, S101G, M107L
VL: B9 VL with N31K, A51V
notes: as for B7

Target: T1, soluble human ASGR-1 carbohydrate …
Experiment: Octet BLI, mAb on AR2G tips, 1:1 fit
Excerpt: To quantitate the binding affinity of specific antibodies for ASGR-1 (either purified from hybridoma supernatants or made recombinantly), association and dissociation rates can be measured using a ForteBio Octet instrument. […] Experimental kinetic results were globally fit to a 1:1 binding model in order to determine the association and dissociation rate constants as well as the equilibrium dissociation constant. Association and dissociation times were chosen to ensure that curvature was present during association curves and measured dissociation levels dropped at least 5% from starting levels. All Octet buffers contained 10 mM Tris (pH7.5), 150 mM NaCl, 1 mM CaCl₂), 0.10 mg/ml BSA and 0.13% Triton X-100. Octet assays were run at 27° C. Because this assay only measures binding to the ASGR-1 CBD, antibodies that recognize epitopes partially or entirely outside the CBD and/or recognize ASGR-1 in the context of a native ASGR complex, for example, as could occur on cell membranes, may not score as positive in this assay.

Row | Kd | Binder
1 | 1 nM | B1
2 | 2.6 nM | B2
3 | 0.8 nM | B3
4 | 3.5 nM | B4
5 | 4 nM | B5
6 | 0.8 nM | B6

Target: T2, human ASGR-1 (wild type)
Experiment: flow cytometry, CHO-S:huASGR-1 cells, 11-point titration
Procedure: CHO—S stable high-expressing cell line were developed for both human ASGR-1 as well as mouse ASGR-1. A typical 384 well plate multiplex flow cytometery-based cell binding method is described as followed: Parental CHO—S cells and CHO—S:huASGR-1 cells were respectively labeled using a CellTrace CFSE Cell Proliferation Kit (ThermoFisher Catalog #C34554) and CellTrace Violet Cell Proliferation Kit (ThermoFisher Catalog#C34557) CHO—S:muASGR-1 were not labeled. 20 ul of cells at 4C were added to duplicate wells of the 384 well plate. The cells were equally mixed from all three cell lines (30K cells/well). Then 20 ul of the ASGR-1 antibodies (either purified from hybridoma supernatants or made recombinantly) were added in an 11-point dose response using a 1:2 fold serial dilution starting at 100 nM. The cells and antibodies were incubated for 30 min at 4C and then spun down and washed twice with FACS buffer containing 1 mM CaCl2. 30 ul of anti-hulgG-APC secondary antibodies were then added at a 1:1000 dilution) for 30 min at 4C and then washed once with the same buffer. 60 ul of PI (1:1000) was added and then the cells were read by a core flow cytometry facility. The cells were gated first for live cells, then for single cells and finally for the cell dyes to separate the mixed cells into the three different cell populations. Histograms of signal vs count representing the binding profile of each antibody at each antibody concentration were automatically analyzed for the median of the binding signal and then a binding graph was made with log 10 antibody concentration in nM on the X axis with […] from the duplicate wells on the Y-axis. The binding curves were fit with a standard four parameter sigmoidal binding curve and EC50's reported for all graphs with full curves.

Row | EC50 | Binder
7 | 1 nM | B1
8 | 2.2 nM | B2
9 | 1 nM | B3
10 | 0.13 nM | B4
11 | 0.56 nM | B5
12 | 0.25 nM | B6

Target: T3, Mouse ASGR-1
Experiment: FACS on transfected HEK 293 cells or membrane preps on beads; binding = signal at least 2x irrelevant IgG
Procedure: Human ASGR-1-specific, ligand competing antibody samples were tested for binding to ASGR-1 from other species (cynomologus monkey ASGR-1, mouse ASGR-1, rat ASGR-1, dog ASGR-1, and pig ASGR-1) as well as to human ASGR-2 in FACS binding assays at normalized antibody concentrations. For cell-based assays, HEK 293 cells expressing the appropriate antigen of interest were mixed with antibody sample or controls, incubated for 1 hour at 4° C., and then washed twice. Cells with bound antibody were then incubated with Alexa Fluor® 647 IgG Fc fragment-specific detection antibody and 7-AAD viability stain for 15 minutes at 4° C., washed once and resuspended in FACS buffer. Samples were analyzed using a BD Accuri™ Flow Cytometer and an Intellicyt HyperCyt Autosampler. As a negative control, supernatants and controls were also screened against HEK 293 cells transfected with empty parental vector. […] For membrane-prep binding assays, ASGR-1 species specific membrane preps were used to coat LumAvidin® microspheres (beads) and tested for binding to selected hybridoma supernatants or controls. Briefly, ASGR-1 species specific membrane preps were incubated with streptavidin-coated LumAvidin® beads for 45 minutes in the dark at room temperature and washed twice. Beads were resuspeneded in FACS buffer containing Stabilguard®. Antigen-bound beads were then incubated with normalized antibody sample for 1 hour in the dark at room temperature, washed twice, incubated with Alexa Fluor® 488 IgG Fc fragment-specific detection antibody for 15 minutes in the dark at room temperature, washed once and finally resuspended in FACS buffer. Samples were analyzed using an Intellicyt iQue™ Screener Platform. FACS buffer supplemented with 1 mM Calcium Chloride was used in all steps. As a negative control, supernatants and controls were also screened against a non-ASGR-1 antigen membrane prep coated on the LumAvidin® beads.

Row | binding result | Binder
13 | no binding | B7
14 | no binding | B8
15 | no binding | B9
16 | no binding | B10
17 | no binding | B11
18 | no binding | B12
19 | no binding | B13
20 | no binding | B14

Reference: US20190248902A1 (published 2019)
